Data: patent US20200299408A1 (Genentech, published 2020)
“And” between values parts separate entries of the source, which are not always exact repeats. Equal values may be shown once. Read-outs that look alike come from different tables or passages of the source.

How the values were obtained:
[1] = target: T1, commercial CD3ε (Creative Biomart, Catalog Number CD3E-2194H) (human, UniProt P07766); test: binding affinity on commercial CD3ε (Creative Biomart CD3E-2194H); method not stated in the legend
T1 construct: commercial recombinant protein; also called commercial CD3E

[2] = target: T1, commercial CD3ε (Creative Biomart, …); test: as above; remark: listed apart in the source
[3] = target: T2, single chain human CD3ε-26mer-CD3γ (CD3εγ) (human); test: Biacore, human CD3εγ on chip, antibody in flow-through
T2 construct: also called human CD3εγ
T2 chain: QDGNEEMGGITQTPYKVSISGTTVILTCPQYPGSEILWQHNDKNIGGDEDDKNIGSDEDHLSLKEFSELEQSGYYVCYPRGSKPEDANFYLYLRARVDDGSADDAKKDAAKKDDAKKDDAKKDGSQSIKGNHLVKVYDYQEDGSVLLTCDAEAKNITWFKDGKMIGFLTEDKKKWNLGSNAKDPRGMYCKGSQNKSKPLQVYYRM

[4] = target: T3, cyCD3εγ (cynomolgus monkey); test: monovalent binding affinity, method not stated on the sheet
T3 chain 1: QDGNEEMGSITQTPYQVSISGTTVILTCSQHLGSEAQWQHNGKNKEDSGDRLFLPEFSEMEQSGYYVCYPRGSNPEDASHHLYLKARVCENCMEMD
T3 chain 2: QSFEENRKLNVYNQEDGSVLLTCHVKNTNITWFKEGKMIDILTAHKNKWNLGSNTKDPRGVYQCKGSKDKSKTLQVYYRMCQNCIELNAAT

[5] = target: T2, single chain human CD3ε-26mer-CD3γ …; test: monovalent binding affinity, method not stated on the sheet; column huCD3εγ
[6] = target: T2, single chain human CD3ε-26mer-CD3γ …; test: Biacore, monovalent KD of the CD3 arm; CD3 antigen not named on the sheet (reactivity hu, cyno)
[7] = target: T4, G3A; test: phage ELISA: anti-CD3 antibody coated on the plate, dilution series of M13 phage displaying the CD3εγ variant, anti-M13-HRP, OD A450; [phage] axis 10^-3 to 10^0 without unit
T4 construct: Residue number counts from the N-terminus of CD3ε; also called CD3εγ G3A; CD3 mutant G3A
T4 single chain CD3ε-26mer linker-CD3γ: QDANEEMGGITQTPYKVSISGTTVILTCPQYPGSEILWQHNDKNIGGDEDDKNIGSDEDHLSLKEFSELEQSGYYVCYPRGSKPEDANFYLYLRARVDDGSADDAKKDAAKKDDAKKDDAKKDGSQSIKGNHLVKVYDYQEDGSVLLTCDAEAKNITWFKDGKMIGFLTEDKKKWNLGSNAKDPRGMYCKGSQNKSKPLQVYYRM
Protocol: (§1) This CD3εγ phagemid was used as a template for making single alanine mutations in CD3ε by Kunkel mutagenesis. […] The effect of alanine mutation in CD3εγ on anti-CD3 antibody binding was assessed using a phage ELISA. Each anti-CD3 antibody was immobilized on a NUNC maxisorp plate at 2 μg/ml in PBS buffer overnight at 4° C. Purified phage supernatant displaying a CD3εγ alanine variant (1.0 OD₄₅₀) was added to the plate and allowed to bind at room temperature with shaking for 1 h. After washing, bound phage was detected with anti-M13-HRP (GE Healthcare cat #45-001-419).

[8] = target: T5, N4A; test: as above
T5 construct: Residue number counts from the N-terminus of CD3ε; also called CD3εγ N4A; CD3 mutant N4A
T5 single chain CD3ε-26mer linker-CD3γ: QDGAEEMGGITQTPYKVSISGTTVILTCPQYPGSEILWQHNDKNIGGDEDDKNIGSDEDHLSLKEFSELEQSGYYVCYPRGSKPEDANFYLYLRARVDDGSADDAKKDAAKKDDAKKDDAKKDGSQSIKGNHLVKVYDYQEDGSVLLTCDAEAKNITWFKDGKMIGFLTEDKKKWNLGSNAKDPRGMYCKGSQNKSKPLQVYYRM
Protocol: as §1

[9] = target: T6, E5A; test: as above
T6 construct: Residue number counts from the N-terminus of CD3ε; also called CD3εγ E5A; CD3 mutant E5A
T6 single chain CD3ε-26mer linker-CD3γ: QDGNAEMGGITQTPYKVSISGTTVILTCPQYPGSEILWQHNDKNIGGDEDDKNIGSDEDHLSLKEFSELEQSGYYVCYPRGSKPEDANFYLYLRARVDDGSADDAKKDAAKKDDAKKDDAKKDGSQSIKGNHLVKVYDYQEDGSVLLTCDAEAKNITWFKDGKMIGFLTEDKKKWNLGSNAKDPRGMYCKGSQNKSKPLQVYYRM
Protocol: as §1

[10] = target: T7, E6A; test: as above
T7 construct: Residue number counts from the N-terminus of CD3ε; also called CD3εγ E6A; CD3 mutant E6A
T7 single chain CD3ε-26mer linker-CD3γ: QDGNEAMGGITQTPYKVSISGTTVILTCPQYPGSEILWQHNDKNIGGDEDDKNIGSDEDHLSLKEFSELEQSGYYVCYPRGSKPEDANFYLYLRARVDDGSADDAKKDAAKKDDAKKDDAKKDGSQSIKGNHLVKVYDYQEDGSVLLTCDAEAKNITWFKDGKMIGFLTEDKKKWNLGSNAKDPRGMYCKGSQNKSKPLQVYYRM
Protocol: as §1

[11] = target: T8, human CD3 on T cells (human, UniProt P07766 22-207); test: Scatchard; table headed 'Bivalent Binding Affinity', though its footnote reads 'monovalent binding Kd measured by scatchard'; cells not named
T8 construct: whole, on cells; On cells CD3ε stands in the CD3/TCR complex; also called CD3 antigen; CD3ε

[12] = target: T8, human CD3 on T cells; test: Scatchard; table 'Monovalent Binding Affinity'; the partner arm is not given, the TDB is taken from legend paragraph 149, p-1410 and Figure 16; cells not named
[13] = target: T8, human CD3 on T cells; test: FACS on Jurkat cells, anti-huIgG-PE, MFI/PE; panel 'Jurkat / CD3 arm'
[14] = target: T8, human CD3 on T cells; test: FACS on Jurkat cells (CD3), anti-huIgG-PE; number printed beside the curve without a quantity name, taken as EC50
Protocol: (§2) Binding affinities for the each of the CD3/CD20 TDBs were tested by Biacore or FACS analysis, as described above for the anti-CD3 antibodies. Briefly, for Biacore binding assays, human CD3εγ was immobilized on Biacore Series S CM5 sensor chip using the amine coupling kit from Biacore and CD3/CD20 TDBs or Fab variants thereof were in the flow through. For FACS binding assays, either Bjab cells (for B cell antigens) or Jurkat cells (for CD3 antigen) were incubated with various concentrations of TDB antibodies at 4° C. for 30 minutes, then cells were washed and incubated with 2nd antibody (anti-huIgG-PE; BD Bioscience) for another 15 minutes, before cells were washed again and ready for FACS analysis.

[15] = target: T8, human CD3 on T cells; test: as above; remark: listed apart in the source
Protocol: as §2

[16] = target: T8, human CD3 on T cells; test: as above; remark: listed apart in the source
Protocol: as §2

B1: murine 41D9 (antibody, V domains shown)
VH: QIQLVQSGPELKKPGETVKISCKASGYTFTNYGMNWVKQAPGKGLKWMGWINTNTGKPTYAEEFKGRFVFSLETSASTTYLQINNLKNEDTATYFCARRGDYRYAWFLYWGQGTLVTVSA
VL: QAVVTQESALTTSPGGTVILTCRSSTGAVTTSNYANWVQEKPDHLFTGLIGGTSNRAPGVPVRFSGSLIGDKAALTITGAQTEDDAMYFCALWYSTHFVFGGGTKVTV
notes: also called 41D9a
- Kd [1]: 1.1 nM

B2: murine 38E4 (antibody, V domains shown)
VH: QVQLQQSGPELVKPGASVTISCTASGFTFTSYYIHWVRQRPGQGLEWIGWIYPENDNTKYNEKFKDKATLTADTSSSTAYMQLSSLTSEDSAVYYCARDGYSRYYFDYWGQGTTLTVSS
VL: DIVMTQSPSFLAVSAGEKVTMSCKSSQSLLNSRTRKNYLAWYQQRPGQSPKLLIYWTSTRKSGVPDRFTGSGSGTDFTLTISSVQAEDLAIYYCKQSFILRTFGGGTKLEIK
- Kd [2]: 0.75 nM

B3: humanized 38E4 variant: VH1 graft + R71A / K4 graft + P43S (antibody, V domains shown)
VH: EVQLVQSGAEVKKPGASVKVSCKASGFTFTSYYIHWVRQAPGQGLEWIGWIYPENDNTKYNEKFKDRVTITADTSTSTAYLELSSLRSEDTAVYYCARDGYSRYYFDYWGQGTLVTVSS
VL: DIVMTQSPDSLAVSLGERATINCKSSQSLLNSRTRKNYLAWYQQKPGQSPKLLIYWTSTRKSGVPDRFSGSGSGTDFTLTISSLQAEDVAVYYCKQSFILRTFGQGTKVEIK
- Kd [2]: 0.5 nM

B4: anti-CD3 clone 40G5c (antibody, V domains shown)
VH: EVQLVQSGAEVKKPGASVKVSCKASGYTFTNYYIHWVRQAPGQGLEWIGWIYPGDGNTKYNEKFKGRATLTADTSTSTAYLELSSLRSEDTAVYYCARDSYSNYYFDYWGQGTLVTVSS
VL: DIVMTQSPDSLAVSLGERATINCKSSQSLLNSRTRKNYLAWYQQKPGQPPKLLIYWASTRESGVPDRFSGSGSGTDFTLTISSLQAEDVAVYYCTQSFILRTFGQGTKVEIK
notes: also called hu40G5c
- Kd [3]: 15 nM
- koff [3]: 0.0176 s⁻¹
- kon [3]: 1.2e+06 M⁻¹ s⁻¹
- Kd [4]: 14 nM
- Kd [5]: 12 nM
- Kd [6]: 51 nM
- binding result [7]: binds
- binding result [8]: binds
- binding result [9]: binds
- binding result [10]: binds

B5: K&H 2H7v16/hu UCHT1vM1 (bispecific antibody, V domains shown)
VH 1: EVQLVESGGGLVQPGGSLRLSCAASGYTFTSYNMHWVRQAPGKGLEWVGAIYPGNGDTSYNQKFKGRFTISVDKSKNTLYLQMNSLRAEDTAVYYCARVVYYSNSYWYFDVWGQGTLVTVSS
VL 1: DIQMTQSPSSLSASVGDRVTITCRASSSVSYMHWYQQKPGKAPKPLIYAPSNLASGVPSRFSGSGSGTDFTLTISSLQPEDFATYYCQQWSFNPPTFGQGTKVEIK
VH 2: EVQLVESGGGLVQPGGSLRLSCAASGYSFTGYTMNWVRQAPGKGLEWVALINPYKGVSTYADSVKGRFTISVDKSKNTAYLQMNSLRAEDTAVYYCARSGYYGDSDWYFDVWGQGTLVTVSS
VL 2: DIQMTQSPSSLSASVGDRVTITCRASQDIRNYLNWYQQKPGKAPKLLIYYTSRLESGVPSRFSGSGSGTDYTLTISSLQPEDFATYYCQQGNTLPWTFGQGTKVEIK
modifications: Knob-into-hole full-length IgG; constant regions are not in the letters.
notes: also called CD3/CD20 TDB 2H7v16/UCHT1vM1
- Kd [11]: 40 nM
- Kd [12]: 318 nM

B6: CD3/CD20 TDB 2H7v16/UCHT1v9 (bispecific antibody, human IgG1, V domains shown)
VH 1: EVQLVESGGGLVQPGGSLRLSCAASGYTFTSYNMHWVRQAPGKGLEWVGAIYPGNGDTSYNQKFKGRFTISVDKSKNTLYLQMNSLRAEDTAVYYCARVVYYSNSYWYFDVWGQGTLVTVSS
VL 1: DIQMTQSPSSLSASVGDRVTITCRASSSVSYMHWYQQKPGKAPKPLIYAPSNLASGVPSRFSGSGSGTDFTLTISSLQPEDFATYYCQQWSFNPPTFGQGTKVEIK
VH 2: EVQLVESGGGLVQPGGSLRLSCAASGYSFTGYTMNWVRQAPGKDLEWVALINPYKGVSTYNQKFKDRFTISVDKSKNTAYLQMNSLRAEDTAVYYCARSGYYGDSDWYFDVWGQGTLVTVSS
VL 2: DIQMTQSPSSLSASVGDRVTITCRASQDIRNYLNWYQQKPGKAPKLLIYYTSRLESGVPSRFSGSGSGTDYTLTISSLQPEDFATYYCQQGNTLPWTFGQGTKLELK
notes: also called TDB A
- EC50 (read off the curve) [13]: ~0.1 µg/mL
- EC50 [14]: 0.533 µg/mL
- EC50 [15]: 0.09 µg/mL and 0.6 nM
- EC50 [16]: 0.21 µg/mL and 1.4 nM
- Kd [11]: 3 nM
- Kd [12]: 4.2 nM
